Laboratory results taken from the supplement of paper PMC7125110.
± gives the standard error. For some assays here: Variants at the floor of the assay were thinned out.

B1: glmS ribozyme (parent)
chain: AUAAAAGCGCCAGAACUACAGAAAUGUAGUUGACGAGGAGGAGGUUUAUCGAAUUUUCGGCGGAUGCCUCCAAA

How the values were obtained:
Details in all cases: with glucosamine-6-phosphate
glucosamine-6-phosphate [1] = variants of: B1; assay: kcat; higher = faster cleavage; RNA array
How it was run: (§1)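 The measurements used barcoded ribozyme variants on sequenced MiSeq chips, transcribed in situ by E. coli RNA polymerase and tracked at 37 °C with a hybridised Cy3 probe. Glucosamine-6-phosphate, 40 μM to 10 mM in HEPES/KCl/Mg(OAc)2 buffer, was flowed in while tiles were imaged over ~14 h. Baseline-normalised signals, also normalised to non-cleaving reference variants, gave per-tile medians that were fit to one- or two-exponential decays for kobs. kcat and KM resulted from weighted Michaelis–Menten fits across concentrations.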

glucosamine-6-phosphate [2] = variants of: B1; assay: self-cleavage kobs at 40 uM GlcN6P; higher = faster cleavage; RNA array
How it was run: as §1

glucosamine-6-phosphate [3] = variants of: B1; assay: self-cleavage kobs at 2500 uM GlcN6P; higher = faster cleavage; RNA array
How it was run: as §1

glucosamine-6-phosphate [4] = variants of: B1; assay: self-cleavage kobs at 10000 uM GlcN6P; higher = faster cleavage; RNA array
How it was run: as §1

glucosamine-6-phosphate [5] = variants of: B1; assay: KM; higher = weaker cofactor use; RNA array
How it was run: as §1

glucosamine-6-phosphate [6] = variants of: B1; assay: self-cleavage kobs at 160 uM GlcN6P; higher = faster cleavage; RNA array
How it was run: as §1

glucosamine-6-phosphate [7] = variants of: B1; assay: self-cleavage kobs at 640 uM GlcN6P; higher = faster cleavage; RNA array
How it was run: as §1

Variant	kcat (glucosamine-6-phosphate [1])	self-cleavage kobs at 40 uM GlcN6P (glucosamine-6-phosphate [2])	self-cleavage kobs at 2500 uM GlcN6P (glucosamine-6-phosphate [3])	self-cleavage kobs at 10000 uM GlcN6P (glucosamine-6-phosphate [4])	KM (glucosamine-6-phosphate [5])	self-cleavage kobs at 160 uM GlcN6P (glucosamine-6-phosphate [6])	self-cleavage kobs at 640 uM GlcN6P (glucosamine-6-phosphate [7])
A33U U47G	4.65e-05 ± 3.9e-06 s⁻¹	< 1e-05 s⁻¹	4.09e-05 ± 6.6e-06 s⁻¹	4.2e-05 ± 5.3e-06 s⁻¹			
G32A A53G	0.00285 ± 0.00095 s⁻¹	5.52e-05 ± 9e-06 s⁻¹	0.00106 ± 0.00021 s⁻¹	0.00294 ± 0.00036 s⁻¹	1980 ± 950 µM	0.000222 ± 3.2e-05 s⁻¹	0.00114 ± 0.0002 s⁻¹
G32A C67U C71G	8.98e-05 ± 2.5e-05 s⁻¹	5.63e-05 ± 2.5e-05 s⁻¹	9.42e-05 ± 2.9e-05 s⁻¹	5.54e-05 ± 2.2e-05 s⁻¹		9.79e-05 ± 2.3e-05 s⁻¹	0.000178 ± 4.1e-05 s⁻¹
A33U C50U G59U	1.02e-05 ± 3e-06 s⁻¹						
U31C U46A	0.000286 ± 7.3e-06 s⁻¹		0.000152 ± 2.9e-05 s⁻¹	0.000234 ± 3.3e-05 s⁻¹	2230 ± 110 µM		6.31e-05 ± 9.4e-06 s⁻¹
U31C U46G	0.000788 ± 0.00029 s⁻¹		0.000722 ± 0.00013 s⁻¹	0.000568 ± 7.8e-05 s⁻¹			0.000198 ± 3.6e-05 s⁻¹
U31G C50U	2.22e-05 ± 1.4e-06 s⁻¹	< 1e-05 s⁻¹					
A33G C70A	1.84e-05 ± 4.6e-06 s⁻¹						
C34G U47G C58A C68A	5.47e-05 ± 1.4e-05 s⁻¹		6.86e-05 ± 2.9e-05 s⁻¹			6.99e-05 ± 1.7e-05 s⁻¹	6.8e-05 ± 3.3e-05 s⁻¹
A36G C70U	3.34e-05 ± 3.8e-06 s⁻¹		3.3e-05 ± 1.3e-05 s⁻¹	2.96e-05 ± 1.1e-05 s⁻¹			
G35C U65G	< 1e-05 s⁻¹	< 1e-05 s⁻¹	< 1e-05 s⁻¹		1500 ± 360 µM	< 1e-05 s⁻¹	
G32C U54G	9.47e-05 ± 8e-06 s⁻¹		5.12e-05 ± 1.5e-05 s⁻¹	7.5e-05 ± 8.5e-06 s⁻¹	2550 ± 810 µM		
U31G U56A	0.00739 ± 0.00043 s⁻¹	6.8e-05 ± 9.6e-06 s⁻¹	0.00263 ± 0.0008 s⁻¹	0.00519 ± 0.00083 s⁻¹	4370 ± 320 µM	0.000307 ± 0.00014 s⁻¹	0.000903 ± 0.00017 s⁻¹
U31G C58A	0.000195 ± 2.1e-05 s⁻¹		9.47e-05 ± 1.4e-05 s⁻¹	0.000163 ± 1.7e-05 s⁻¹	2240 ± 600 µM		5.23e-05 ± 1.2e-05 s⁻¹
U31C G32A C58A U65G	4.59e-05 ± 1e-06 s⁻¹			3.72e-05 ± 1.4e-05 s⁻¹	2320 ± 190 µM		
C34G G63U C68G	2.21e-05 ± 7.4e-06 s⁻¹						
G32A C61A	< 1e-05 s⁻¹						
C34G C68A	2.06e-05 ± 8.4e-06 s⁻¹						
G32U G51U U55A	1.45e-05 ± 2.5e-06 s⁻¹						
A33U C67U	4.33e-05 ± 9.7e-06 s⁻¹		2.49e-05 ± 6.9e-06 s⁻¹	4.16e-05 ± 7.3e-06 s⁻¹			3.39e-05 ± 1.5e-05 s⁻¹
A33U C67A	7.68e-05 ± 3.3e-06 s⁻¹		2.58e-05 ± 7.7e-06 s⁻¹	5.17e-05 ± 6e-06 s⁻¹	4870 ± 530 µM		
A33U C70G	1.5e-05 ± 1.8e-06 s⁻¹						
G35C G40U	< 1e-05 s⁻¹	< 1e-05 s⁻¹	< 1e-05 s⁻¹	< 1e-05 s⁻¹			< 1e-05 s⁻¹

Variant	kcat (glucosamine-6-phosphate [1])	self-cleavage kobs at 40 uM GlcN6P (glucosamine-6-phosphate [2])	self-cleavage kobs at 2500 uM GlcN6P (glucosamine-6-phosphate [3])	self-cleavage kobs at 10000 uM GlcN6P (glucosamine-6-phosphate [4])	KM (glucosamine-6-phosphate [5])	self-cleavage kobs at 160 uM GlcN6P (glucosamine-6-phosphate [6])	self-cleavage kobs at 640 uM GlcN6P (glucosamine-6-phosphate [7])
A36C C71G	1.27e-05 ± 2.5e-06 s⁻¹						
A36C C71A	< 1e-05 s⁻¹						
G32C U55C	0.000106 ± 1.3e-05 s⁻¹		2.78e-05 ± 1.4e-05 s⁻¹	6.12e-05 ± 1.1e-05 s⁻¹	7360 ± 1900 µM	< 1e-05 s⁻¹	
G32C U55G	0.000137 ± 1.4e-05 s⁻¹		2.64e-05 ± 8.4e-06 s⁻¹	6.68e-05 ± 1.2e-05 s⁻¹			
A33G C68A	1.39e-05 ± 1.5e-06 s⁻¹						
G32A C68A	1.56e-05 ± 4.4e-06 s⁻¹						
G32C C67G	2.22e-05 ± 2.6e-06 s⁻¹			1.85e-05 ± 8.6e-06 s⁻¹	2060 ± 980 µM		
C34U C50A	1.45e-05 ± 5.7e-06 s⁻¹						
G32A G66C	5.52e-05 ± 1.5e-06 s⁻¹		3.72e-05 ± 1.6e-05 s⁻¹	4.9e-05 ± 1.4e-05 s⁻¹	1250 ± 160 µM		
G32C C58G	8.83e-05 ± 1.4e-05 s⁻¹		4.79e-05 ± 7.8e-06 s⁻¹	6.81e-05 ± 9.4e-06 s⁻¹	2580 ± 1100 µM		
A33U U46C	2.23e-05 ± 3.7e-06 s⁻¹						
U31G A48U U55G A64G	0.000666 ± 0.00016 s⁻¹		0.000437 ± 0.00013 s⁻¹	0.000484 ± 9.1e-05 s⁻¹	3200 ± 1500 µM		0.0001 ± 2.9e-05 s⁻¹
G32C C61G	< 1e-05 s⁻¹	< 1e-05 s⁻¹					< 1e-05 s⁻¹
U31G U46A	0.000771 ± 0.00021 s⁻¹		0.000954 ± 0.00016 s⁻¹	0.000614 ± 0.0001 s⁻¹		0.000124 ± 3.6e-05 s⁻¹	0.000258 ± 6.7e-05 s⁻¹
C34G G38A C58A C68G	5.13e-05 ± 7.5e-06 s⁻¹		4.79e-05 ± 1.7e-05 s⁻¹				5.22e-05 ± 1.6e-05 s⁻¹
G35A C50G	0.000781 ± 0.00018 s⁻¹		0.000615 ± 0.00015 s⁻¹		1190 ± 540 µM		0.000273 ± 0.00012 s⁻¹
C34G U46G C50U C67U	1.54e-05 ± 5.4e-06 s⁻¹						
A33U U49G	1.42e-05 ± 5.2e-07 s⁻¹				44.7 ± 12 µM	< 1e-05 s⁻¹	< 1e-05 s⁻¹
G32C C71G	1.39e-05 ± 7.5e-07 s⁻¹				86.6 ± 35 µM		
A33G A64G C70A	5.02e-05 ± 9.3e-06 s⁻¹						
U31G G38U	< 1e-05 s⁻¹						
G32A U69A	9.02e-05 ± 2.8e-05 s⁻¹		9.73e-05 ± 1.8e-05 s⁻¹	7.45e-05 ± 1.1e-05 s⁻¹			
A33U U69C	7.22e-05 ± 1.2e-06 s⁻¹		5.12e-05 ± 1.2e-05 s⁻¹	6.49e-05 ± 9.5e-06 s⁻¹	1080 ± 92 µM		
